Assay results taken from patent US20180326085A1.

Target: biotinylated recombinant human c-MET ECD (HGFR extracellular domain) (human) (UniProt P08581)
Experiment: HGF competition ELISA: HGF on the plate, biotinylated c-MET ECD pre-incubated with the antibody; blocked ligand HGF

IC50 (read off the curve): 3 nM
Substance: 224G11 (antibody)
